Results: PMC12755392, “p62 sorts Lupus La and selected microRNAs into breast cancer-derived exosomes”

Target: T1, La 1-408 (full-length Lupus La) (Homo sapiens, UniProt P05455 1-408)
T1 sequence: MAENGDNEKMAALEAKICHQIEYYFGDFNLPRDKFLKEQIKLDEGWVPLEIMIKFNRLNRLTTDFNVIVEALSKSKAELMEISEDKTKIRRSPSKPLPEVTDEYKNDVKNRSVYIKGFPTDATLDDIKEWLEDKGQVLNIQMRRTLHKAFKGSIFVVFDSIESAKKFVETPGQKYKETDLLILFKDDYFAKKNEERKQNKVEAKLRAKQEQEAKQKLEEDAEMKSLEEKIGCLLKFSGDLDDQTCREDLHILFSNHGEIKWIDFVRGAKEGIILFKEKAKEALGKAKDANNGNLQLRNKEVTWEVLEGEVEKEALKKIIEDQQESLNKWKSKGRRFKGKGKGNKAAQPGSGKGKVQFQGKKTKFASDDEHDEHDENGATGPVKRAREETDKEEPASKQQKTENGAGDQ
Test: EMSA; EMSA: 1 nM miRNA, 25 mM Tris-HCl pH 8.0, 100 mM KCl, 1.5 mM MgCl2, 1 mM DTT, 0.05% NP-40, 5% glycerol, 50 ug/ml heparin, 1 U/ul RiboLock; 30 C 30 min then 4 C 10 min; Hill fit
Conditions: protein: recombinant; tags: C-terminal Nluc-FLAG-His6; label: 5' IRD800; single strand

UGAUAUGUUUGAUAUAUUAGGU (ssRNA) [miR-190]
Kd: 1150 nM

UGGAGUGUGACAAUGGUGUUUG (ssRNA) [miR-122 (hsa-miR-122-5p?)]
Kd: 14.1 nM
